The nature of the data set: soluble on expression in E. coli; label from the status in PepcDB or PDB records.
On to “SPSSPLRVAVVCSSNQNRSMEAHNILSKRGFSVRSFGTGTHVKLPGPAPDKPNVYDFKTTYDQMYNDLLRKDKELYTQNGILHMLDRNKRIKPRPERFQNCTDLFDLILTCEERVYDQVVEDLNSREQETCQPVHVVNVDIQDNHEEATLGAFLICELCQCVSLSSWVLLGLLIATYKNKIK”, for which the “soluble on expression in E. coli” value was “soluble”. With “MRGVVFLHAFPYSPRMWEGEVALLKTRLPVLAPHYLGLSLGKAAEKVLGEMDEAGLEQAVFVGLSMGGYLVFELFRKAPERFLGTVLSSTRAGPDSEEAKRNRYALRERVLKDGVGFLPEALLPSHLGRTTQATKPEVVEKVRAIILEASPEAVAETLVALAERPDSTPLLSRMQVPALVLVGEEDTLTPPEEARRMWKALPDARMLILPETGHLANLENPKAFRTALLGFLAEFF”, the “soluble on expression in E. coli” value was “soluble”. As for “MISPNHLILLFCVNCAFLVASDATPKRSPLGTMRFGKRAIADEMTFEEDGYYPSNVMWKRSTVDSSEPVIRDQRTPLGTMRFGKRSAEPFGTMRFGKRNPENDTPFGTMRFGKRASEDALFGTMRFGKREDGNAPFGTMKFGKREAEEPLGTMRFGKRSADDSAPFGTMRFGKRNPLGTMRFGK”, the entry is “not soluble”; as for “MDGILSHNSKKTADFDEYELYRRLKSWYKEDVEHVNEWREQAREDFDFYNGRQWAEEDLAVLKAQRRPVMTFNRIAPLVNAIVGAERNNKREVQFQPRQAGAAISNELLTGAAEWFRDEAEAEYADSDAFQDMVICGMGWTDTRLDYETDPEGIPAIQRLDPLKMVWDANAVRPNLIDAQRMWYVDRKPVEDAKSLFPDVAVEDLHADWATDNTTACEEYHVSLDAYNDHANADSLSQSASEKRYVTLVECRWFEYEVYFKAPDLQTGQMRSYSKQEFEQLQRVAPQLQGVRFNKKVVKRAFLGRRLLAKPDKPLAPDGQLGWECITGTLDKLKNQFYGIVRPAKDPQKWSNKYFSQVMYILNSQAKGGLMAERGAFDDERQALENWTRTDTITWVKNGALTGGKIQPKPSAQFPNGFFQLFNESREAITHVTGLSAEFIGTREVNQANVLENTRRQSTLNLLAGLFDNLKLYRCRQGKIILYLIQNYLSDGRLVRISGPENAQYVPLTREAVTKLEYDIIVDDSPTSPNEKERTFAAITQMLPLLGGFLTPEMIPDLLKLSPLPATLVANLTAKAQQAQQEQQQQQMMQQNQGTQLNPEQQAKIAALQQEAQAKGTLYQLDAQQKQLALQQKNIELFLKQEQARMQLELQRAKNEIAQRDLERKSLQAQLEHYRVLTKRLIPH”, “not soluble”; as for “MSLKYKNLFFDLDDTIWAFSRNARDTFEEVYQKYSFDRYFDSFDHYYTLYQRRNTELWLEYGEGKVTKEELNRQRFFYPLQAVGVEDEALAERFSEDFFAIIPTKSGLMPHAKEVLEYLAPQYNLYILSNGFRELQSRKMRSAGVDRYFKKIILSEDLGVLKPRPEIFHFALSATQSELRESLMIGDSWEADITGAHGVGMHQAFYNVTERTVFPFQPTYHIHSLKELMNLLEGHHHHPPLIRIRAPSTSLRPHSSTTTTTTEIRLLTKPERKLSWLLPPLSNN”, “soluble”. Next, “MYVTVTEAAYKKIMDTIPSEAKYIKLFYDNEGCGCVMSGIIDLVAVAEKDERDVDIESSTMNFIADRTKLVFMDDKLTVDWHEGGGTFQLKSPSQFYNPNMKLHVRV”: “not soluble”; “MGHAKHLIDGNIETFWHSRWQGGSDPLPYEIIIDMNHRVKIAQIELLPRGRGSNNPIKVVRFEASEDGTNWESIGQFGFTNQDAALKYYVKSSTARYIKLVIPDGVGNGTVAAIRELDVRGTVVNLEHHHHHH”: “not soluble”; “MGHHHHHHSHYPPIEFDKYKCKNSEDFYLFVGRLWHEKRPEEAIRGCIKAKKKIVVIGSGYLEKYLRDKYGKNPYVEIKGFVSEEEKVDLLASCKAVIYPCIAEDFGIVPIEAFASGKPVIADNSGFPPYVVNEERGIITDCSNPDNIAKAIEELEKKKYDPDKIREFAKQF”: “soluble”.

For “MCLIVFAWRPGHAQPLIVAANRDEFYARPSLPLGQWPELPQIHAGRDLEAGGTWLGVGAEGRFAALTNIRNPHQPPARRSRGELVARFLAGDVPLDDYLRDVVGRSVEYAGFNLLLGNAEQLWHYNARDPQPQRLEPGVYGLSNAGLDTPWPKLLKARAALQEVLHDPQPQALLALLSDPQTAPFADLPDTGVGLATESLLSSVFIASPSYGTRASTALIVHADGSRHLLERSFGPYGGHLGEVELKVLEHHHHHH”, the “soluble on expression in E. coli” value is “not soluble”. Turning to “MKMKHMKPYTTMKTVLSTLAIALAFGPLHNAQACTRILYETGNQSYISGRSMDWADPSAATALWVFPKGMKRDGTVGDNPIKWSAKYGSIIVSFYDAGTADGMNEKGLVANMLYLKEAKWGDATKAGKPTLTAGAWAQYFLDNYATVEEAVTAMANPPFTIIAPSLPNGDAAALHLSISDVNGDSAIFEYIDGKLVIHHGSQYKVMTNSPTFDQQLALNTYWQQIGGSKFLPGTINAADRFVRASYALSASPKYRDNDLALASVFSQIRAVSVPLGITDPDRPNLAMTLWRTFADHTAKIYYFESAVFPAVSWLDMSKVDLTEGAAPKVVRVERGQPLAGELSAALKPAEPFKWLGAE”, the “soluble on expression in E. coli” value was “not soluble”.

In the case of “TGAQTKLTQTGAITTVNVDHLKANPSSSIVNTLAGNVAGVLAMQTSGQPGKNVSEFWIRGISTFGASTSAYVLVDGFERSMDEINIEDIESFSVLKDASATAIYGSKGANGVVLITTKHGKAG”, the “soluble on expression in E. coli” value is “not soluble”.

Turning to “MGSDKIHHHHHHMLDKKTNIATDDPKAWLAQHGINEVECLVPDMNGVLRGKALPTAKFLKALEDRALYLPSSAFLVSIDGRYSGSIDEGFAYSDPDMRMVPDVSTLCLAPGAGAGKAYVFADAFHMDGRPWMASPRHVLRAVLDLYRQRGWRAVVAPEVEFYLTAPNPDPDRPLTAPVGANGRAEGVQHPYDMVALEEFEPVIRRVYDYAAAAGLPLDTLIHESGTAQLEINLLHGDALPLADQVLLFKRLTRQAAQQCGMHATFMAKPIAAQAGSSMHLHMSVVDEAGNALFASDDDADTEMFGHFIGGLQTYVPEIMPLFAPNVNSFRRIRPNHSAPANIEWSHDNRSCGLRVPAGGRSARRVENRLPGADSNPYLAIAGSLLAGYLGVQQKLARSAEASGNAYKIKSTLPKTMEEALDRFTACEPVRKLLGEDFSQTYLRVKSVELDLFQSVVTSWERDHLLLKV”, the “soluble on expression in E. coli” value is on record as “not soluble”. As for “MSLTKDILILAVETSCDETSVSVIKNGRDILSNTVLSQIESHKRFGGVVPEVASRHHVEGITTTINEALVDADVSMEDIDAIAVTEGPGLIGALLIGVNAAKALAFAYDKPLIPVHHIAGHIYANHIEEPLTFPLIALIVSGGHTELVYMKDHLSFEVIGETRDDAVGEAYDKVARTIGLNYPGGPQVDRLAAEGEDTYSFPRVWLDKDSYDFSFSGLKSAVINQLHNQRQKNIPIIEANVATSFQNSVVEVLTFKAIQACKEYSVQRLIVAGGVASNKGLRQSLADQCKVNDIQLTIPSPKLCTDNAAMIGVAGHSLYQQGRFADLALNGHSNIDLEEYSAEEGHHHHHH”, the entry is “soluble”.

Consider “MKIVIIGSGLAGLSAGYRLCKSDEVIIFEKDPDIGGMSASYSIENEGKKYFIEKYYHHIFRSDSELLALIKELGLEKQMLWLKGKNAYFVDGKNYPMNTPVEILHFSPLSILDLAKLGMLVLRIKLIKDTAPYDRIKAKEWILDTAGKSVYENFFAPLMKSKFGDNAENVSAAWVIGRVKIRSDRGAEGEKLGYMRGGFNSLIEALAGEITANGGEIRTDREVTEIVIKANAVQGVKVNGDFIPCDAVISTAEPAVLDAITGGKLGDLHETLKSIRYQGTACALIGLDRSLMEDGNYWLNIKA”, for which the “soluble on expression in E. coli” value is on record as “not soluble”.

Turning to “MKVLHMNAGAEEGGGKTHIISLLSQFSKEEVELMVFEEGAIAREARNLGIQVHVFTQSSRYDLSILSKIKAFINENQFDIVHTHGARANFYLSLLKKGIKAKWIMTVHSDPTLDFMKRGLKGWVFTKLNLRSFRKVDLFFAITENFKRNIIKLGVPEEKICTVYNGIEYDSNPAKPYDKSEFGIDEGIFTAIQVARLHPVKGHDILFEALQKIKIPNIKVLLLGDGPIEAELKEMVKQKGLEDKVMFLGFRIDSKELYASAHINLLTSYSESFPLVLLEAANQRLTSIATNVGDMKKLIVDDTYGWIVPIGDADSLANALENAYEKWLNGELEAMGNRLYTHASTHFSLKNLYEDTYNAYKTLLLK”, the “soluble on expression in E. coli” value is on record as “not soluble”.

The record behind these values is the DeepSol protein solubility set.
